From article PMC13381803 (2026)

Legend:
[1] = biological target: T1, Hna with a C-terminal GFP tag (Sinorhizobium meliloti); assay: FP; without ATP
T1 chain: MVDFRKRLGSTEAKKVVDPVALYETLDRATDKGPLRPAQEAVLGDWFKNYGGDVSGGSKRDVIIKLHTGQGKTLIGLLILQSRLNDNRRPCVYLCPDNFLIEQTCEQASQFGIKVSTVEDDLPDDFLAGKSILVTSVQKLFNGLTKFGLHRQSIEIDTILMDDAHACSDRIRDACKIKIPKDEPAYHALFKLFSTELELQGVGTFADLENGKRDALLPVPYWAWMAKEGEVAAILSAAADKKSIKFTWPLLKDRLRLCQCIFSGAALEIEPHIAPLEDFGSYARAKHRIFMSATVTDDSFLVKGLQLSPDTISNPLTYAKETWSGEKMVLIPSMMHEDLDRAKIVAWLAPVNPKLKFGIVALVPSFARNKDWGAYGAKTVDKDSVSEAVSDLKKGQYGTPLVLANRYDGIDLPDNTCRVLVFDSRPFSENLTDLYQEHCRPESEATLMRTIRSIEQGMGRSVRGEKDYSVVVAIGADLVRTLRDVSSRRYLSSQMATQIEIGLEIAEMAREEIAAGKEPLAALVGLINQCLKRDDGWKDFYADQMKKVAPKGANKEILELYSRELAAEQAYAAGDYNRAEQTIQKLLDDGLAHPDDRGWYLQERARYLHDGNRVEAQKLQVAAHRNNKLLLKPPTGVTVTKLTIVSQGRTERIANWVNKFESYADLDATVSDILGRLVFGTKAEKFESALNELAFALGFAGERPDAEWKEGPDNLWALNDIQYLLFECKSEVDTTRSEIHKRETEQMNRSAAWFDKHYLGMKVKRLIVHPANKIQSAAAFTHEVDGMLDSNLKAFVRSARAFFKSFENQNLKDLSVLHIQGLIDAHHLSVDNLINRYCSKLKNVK

[2] = biological target: T1, Hna with a C-terminal GFP tag; assay: FP; with ATP

B1: Hna (helicase-nuclease abortive infection), wild type, Sinorhizobium meliloti (enzyme)
chain: MVDFRKRLGSTEAKKVVDPVALYETLDRATDKGPLRPAQEAVLGDWFKNYGGDVSGGSKRDVIIKLHTGQGKTLIGLLILQSRLNDNRRPCVYLCPDNFLIEQTCEQASQFGIKVSTVEDDLPDDFLAGKSILVTSVQKLFNGLTKFGLHRQSIEIDTILMDDAHACSDRIRDACKIKIPKDEPAYHALFKLFSTELELQGVGTFADLENGKRDALLPVPYWAWMAKEGEVAAILSAAADKKSIKFTWPLLKDRLRLCQCIFSGAALEIEPHIAPLEDFGSYARAKHRIFMSATVTDDSFLVKGLQLSPDTISNPLTYAKETWSGEKMVLIPSMMHEDLDRAKIVAWLAPVNPKLKFGIVALVPSFARNKDWGAYGAKTVDKDSVSEAVSDLKKGQYGTPLVLANRYDGIDLPDNTCRVLVFDSRPFSENLTDLYQEHCRPESEATLMRTIRSIEQGMGRSVRGEKDYSVVVAIGADLVRTLRDVSSRRYLSSQMATQIEIGLEIAEMAREEIAAGKEPLAALVGLINQCLKRDDGWKDFYADQMKKVAPKGANKEILELYSRELAAEQAYAAGDYNRAEQTIQKLLDDGLAHPDDRGWYLQERARYLHDGNRVEAQKLQVAAHRNNKLLLKPPTGVTVTKLTIVSQGRTERIANWVNKFESYADLDATVSDILGRLVFGTKAEKFESALNELAFALGFAGERPDAEWKEGPDNLWALNDIQYLLFECKSEVDTTRSEIHKRETEQMNRSAAWFDKHYLGMKVKRLIVHPANKIQSAAAFTHEVDGMLDSNLKAFVRSARAFFKSFENQNLKDLSVLHIQGLIDAHHLSVDNLINRYCSKLKNVK
- Kd [1]: 4460 nM
- Kd [2]: 337 nM
